Data as given in the DeepSol protein solubility set.

Assay: soluble on expression in E. coli; label from the status in PepcDB or PDB records
With “MPTKANTQRNWTIMVYLAGDNNLDSAGVVDLKEMKTVGTTDKIAVLAQFDRAGAKQATIRYCLKQGTPLAKDAVQSLGETNMGDPKVLEDFVTWGVANYPADHYLLVLWNHGAGWDDANLYQGDVFSGAAPPVSRKAQPVATRGATAGAKAIPLAQARAGIRRARRALFSTTVEAAIKQRGIAFDDQAQDFLDNIELKRVLTAIKKKLKRKIDIVGMDACLMSMAEVAYQMRDVADYSVGSEETEPGDGWPYDRILKALAAKPAMTPEELSKTIVAQYLASYKATENVTQSAMKLLALNPLATAVDGMAKALTGILGDTAARTALINARSQVQEYSRPYDDYCDLLDLCDLIGKGVASPAVKTACAKVKDAAAAAIVAAGYKGTGVDNSGGISIYFPKRKLSPLYKTLDFTKKTAWDEFLAAYLAGLGRLEHHHHHH” the “soluble on expression in E. coli” value was “soluble”.
For “MSLPIRVPDELPAVNFLREENVFVMTTSRASGQEIRPLKVLILNLMPKKIETENQFLRLLSNSPLQVDIQLLRIDSRESRNTPAEHLNNFYCNFEDIQEQNFDGLIVTGAPLGLVEFNDVAYWPQIKQVLEWSKDHVTSTLFVCWAVQAALNILYGIPKQTRTDKLSGVYEHHILHPHALLTRGFDDSFLAPHSRYADFPAALIRDYTDLEILAETEEGDAYLFASKDKRIAFVTGHPEYDAQTLAQEYFRDVEAGLDPEVPYNYFPHNDPQNKPRASWRSHGNLLFTNWLNYYVYQITPYDLRHMNPTLDEGHHHHHH”, the “soluble on expression in E. coli” value was “soluble”.
With “MAHHHHHHMHRQTAALQGSTVPAFCELLHSRGEAWLGLLGAALALPVHNATADGPSPNSFATPPSCSPSDAPALSEACSRLLSTYFIAAKAQCVEGADASMMKTLVKLTLAHTEWRTRLAMALPQRTGHPTAASSPTRAVTALIDAVAAVGLCDATLHFFTAKTLLGECVFRLLESEAWPTWAPEYCSAPLPQQAEHGVSGAFVHGEGGEPPDWQRLYAEVSHRTRLVPASMHTTEPPSPAFSILQLAQDLQDHLERTVQQSHLALSFTEGGV” the “soluble on expression in E. coli” value was “not soluble”.
In the case of “MGSDKIHHHHHHVSVSDAGNFDANDVAVTFGIDKVREAFEQRRSTLPPFAPYDEEPESERPKLKATPFSWRDPATIPPRKWLYGRHLIRKFLSLDIAPGGLGKSSVKIVEALAMTTGRNLLGKDCHEGPLNVWLYNLEDPAEETERRIHAAAQWFEIGPDDVGERLFVDSGREQPICIAEETDGGARIVRPVVEAVIEQLKDRRIDVLSIDPFVSSHAISENDNRAIDMVAKEWSRIADICDCAINLVHHVRKTNGAEVTAESSRGAVSLIGAARSVVVYNRMTKEEGERAGIEPRQLGFYFRTQNDKANLAPPEAADWFRMNNVDLPNGDSVGVACPWQWPDPFDGVSTWHLKEVQKRVSQGRYRADVRSAQWVGHVIANVLDIDLEKKAGRVKDILKQWLKNDMLREVEGTDEKRNVRKFVEVGTWHTD”, the “soluble on expression in E. coli” value is reported as “not soluble”.
For “MDANTLNVSFEEILKGKKLDEDSIGLTLSPDKDHEDGSQVSPTQDRKELDQVVGEDEKDDFFE”, the “soluble on expression in E. coli” value was “soluble”.
For “MGSDKIHHHHHHMLVVGASGSGKSTFANCINGLIPFKTKGNITGELYINNQDATVSCLHDRSNVVGTVLQDTDGQFIGLTAAEDMAFLLENNCVEQDDMKKNVSYWAEKVGMIEHLNHRPQDLSGGQKQRVSLGGILIHRTPILILDEPLANLDPATGHETLRLLNNIHEETKSTMIIVEHRLEESLDDTFDRVLLFKDGKIIANTTPSDLLKSSKLKEAGIREPLYCTALKYAEVDVESIDNLANLRDVCMSEHVKFKVKKWIDETSANNDNKYKSEPLLELNEVCVQYSDYSNSVLNNVQLNVYRREMLSIVGHNGAGKSTLAKAICGFLDITGNIQFCNRGFNQLSISERSEFVGYVMQNPNHMISEKMIYDEVALGLRARGMKESDIKIRVENVLKICGLYAFRNWPIAALSYGQKKRVTIASVLVLNPEIIILDEPTAGQDFYHYNEIMSFLIELNRQGKTIIMITHDMHLLSEYSSRTVVLSKGQVVADTTPVLILNDKKICEIASLRQTSLFEMAEYIGISEPQKLVQLFINHDRKVRRQ”, the “soluble on expression in E. coli” value was “not soluble”.
In the case of “MPNRHGSPRSSTRWAGLAIIALACLLSACSSTPTRSLTSRDTSGQRTHGAAINDPSAGLEEISIEAMALVGTPYRYGGNTPDSGFDCSGLVRYVVQRAASVNLPRTAAEMGTRGFALERRDVASGDLVFFNTTGRPNSHVGIYVGQNRFVHAPATGGTVRLEDMSKRYWASRYMGARRVVAVSNLPDLPASPAAATQSIAAGAAAPATAPAHANDDDPLGTLARARGTESSPLMSTRNAAPVVVPPADDDPIARFATQ”, the “soluble on expression in E. coli” value is reported as “soluble”.
For “MKKAKKEKKEKIIKPDGPINFNRSIMAAFEKQSRGKICPLCETKFSLASYKSHMNTCNVADDDEEIEVIATYTRDEAILMRAGPEIILGDASFSDKSENPTKRRKTDEREVPSEDDIVPEVPGPSGIVKNHEMPSESLDVTEISENIEKVIKKSPEWINHRRRSSRLLQNSQKDQADNANKEDPVKKETATISEVLQAIERFEQRVSGPEQTWPYYIKITIKIMKRVISTEKFDGTFYADDFWLPSDIITFYRFVELLSEGAKCLLVRLFIRKPAWYNLEKLEQKYPEIPNIKEAVSELAKGHFIDDDSSMKTLDEALQISDVVALKNVTKKFKLDGTKNRQELIQSLRKFAQSQQSIFGGTGNVEKSILKSLKQELGPCVRVRGGFVDLFKCLFTIYCPVTTNSANVIDNPSTTNVYQDLLYLMLSVANGTVQFPAPNPCPIIASFYKNRNMLQDYMISKSLEIAIVSQMSNGNLDAALDLAIDAKEFIEQMSDDDKRYYESLEIHERKFTSIWVFTRCCGHASSILERQKKYGMAVEWQKDLLITNKDIQSYCIDSRGIWWDRMLLNLDSHLKEKKECAKMIQIALQDPSILEKELLMIQDRALKLKEMPADFVTPINIGNPEKKTITANVITKSLGDGRINRFMIRDHETDDDVECSVEEVTRRHYLENEGFSTGVHDEGSTWHTLFGLFFYDVIFATDESVESTWLSELQDCPSDLSNTLYSKRKEKFEDRFVWLEEAEQELIEENIRKIWDLKHNETNRECSWKQFPMGAEDCVSFFQCIPRPALILILRRLAENYRNSRSGFPDLTLWNPETKRVAVVEVKGPGDRLSTKQRLWLAIFADSGIRAEVCHVAAQNSRLLV”, the “soluble on expression in E. coli” value was “not soluble”.
In the case of “SLNAAAADRNKDPILSVLKSRVASNRRLFALEISSGTGQHVVHFAKAFPNITWQPSEVETQSLSSIEAYRQYHRLQNVQPPIYLDVSQSWQTWGGFPAESCDLIININMMHISPLACTTGLFHGVGQILKPQGLLLTYGPYAFNGSIVPQSNFDFDQSLRYRNPEWGLRDASFLTTLGQENGLRLEEIVDMPANNKCLLFRKDSVV”, the “soluble on expression in E. coli” value is reported as “soluble”.
With “MKKVALVTGAGQGIGKAIALRLVKDGFAVAIADYNDATAKAVASEINQAGGHAVAVKVDVSDRDQVFAAVEQARKTLGGFDVIVNNAGVAPSTPIESITPEIVDKVYNINVKGVIWGIQAAVEAFKKEGHGGKIINACSQAGHVGNPELAVYSSSKFAVRGLTQTAARDLAPLGITVNGYCPGIVKTPMWAEIDRQVSEAAGKPLGYGTAEFAKRITLGRLSEPEDVAACVSYLASPDSDYMTGQSLLIDGGMVFN” the “soluble on expression in E. coli” value was “soluble”.
With “MELSALTAVSPVDGRYGSKTIALREIFSEYGLLKYRTIVEIRWLQKLAATAEIAEVPAFSAEANQFLDDLAANFSEADALRIKEIERTTNHDVKAVEYFLKEKVADVPELHAVNEFFHFACTSEDINNTSHALMLKEARETVILPEIRNLIDAIKALAVEYRDIPLLSRTHGQPASPSTMGKEMANVAYRMERQYKQIENVEILAKINGAVGNYNAHLSAYPELDWHKFSEEFITESLGVTWNPYTTQIEPHDYIAELFDAVARFNTILIDFDRDVWGYIALGHFKQKTIAGEIGSSTMPHKVNPIDFENSEGNLGLANAVFGHLAQKLPISRWQRDLTDSTVLRNLGVGVGYAIIAYTSTLKGISKLEVNRDALLAELDKNWEVLAEPVQTVMRRYGIEKPYEKLKELTRGKRVDGEAMRNFIDGLELPEHEKARLKEMTPANYIGQAIELTDKL” the “soluble on expression in E. coli” value was “not soluble”.
With “MGSDKIHHHHHHMNEDYQKTIEFHGHECPGVTIGYRVSKYVLDHYERSEDEQLVAIVENNSCSIDGIQQMLGCTFGKGNLKFKDNGKHVYTFYSRGNDKALRIYLKYNLAEKVGNFNKKFNEGTLTAEDEKQMFERRKEAIKHLMEAPEEELFDVQWVEIEEPKKARLYPSLTCENCGETFMEIKGRTIDGKIVCKECFQKLVH” the “soluble on expression in E. coli” value was “not soluble”.
For “MPSLSEFLRKRRARQRRLQAVPSNNKKKSNNNNIMSSTSSGKSRRAASLSSINNFEHLASVEKAGWLNKWTNYLKGYRQRWFVLDSNATLSYYRNPSEVGHTCRGSINLQEARVHTDKTTSCIVISGQSQTFHVKPQNEMDRQQWTNSLEYMRHKAITRAESEEDEDAQMAKTDSNRSDALILANRQMSGKLCDLRTAANMMNKQGDELMRALNGTVETDKNSLAERADLLKMTTSAVLQAAEEFVELSEQSAKRLNKIVAVEQKEKALLQEQLEALAKQHSSLERAASKCARGAAPVSVYSDQEDDEFHDAEEDLAMPCSNSNGPPATAGVHLTPTKRHIGAGDPSSSTCSDSGAVVVVGAHKGGRQRRTTVPERPNLPINLWSIMKNCIGKELSKIPMPVNFSEPISVLQRVTEDLEYANLLETGAKLSTLEQMCYVAAYAASNYSTTCHRTNKPFNPLLGETFEFDRMDDLGWRSVTEQVSHHPPAAAHHAEGNGWTMYQDFTMTSRFRGKYLSVIPIGFTHVVFPATKSHFSYRKITTTVHNIIVGKLWIDNHGDMEITNHETNEKCLLKFVPYSYFSREQPRKVYGIVRDAEGIPKYVVQGTWDKSIDMLKVSSWNGNHEKPKLEVDETSLKRIWTANPLPKNAEKMHNFTKLAIELNEPEEGVAPTDSRLRPDQRLMENGEWDEANRKKLEIEEKQRVVRRRREAEKELAMKKGDKYEEYEPTWFVRVQDESNGALIHQFKGGYWEAKEQQNWEKCPDIF”, the “soluble on expression in E. coli” value was “not soluble”.
For “MAIWQGASRRLSTGAKVWRAAKKHKREMGRPAAETQVSDKIKRKIVRCRGANLKVKLEKTNYANVFDQANKVCKKVVVTNVIDNKANKHYIRRNVMTKGAIIETEMGKAKVTSRPGQDGVVNAILLTELEHHHHHH”, the “soluble on expression in E. coli” value was “soluble”.
With “MSLSPEHKRTALVTGANSGLGKAIVTALAADGLRVGLVARDRGRGEAALADVRAATGNQDLHLFVADLADQESIRALAQDVRARFDRLHLLINNAGTAFPERRLSPQGIERAFAINHLGPFLLTNLLLDLIKASAPARIVNVGTRIDAAIDFDDLNWDKRPYGMMKGYAQSKLGNLHFTFELARRLEGSGVTVNCVFPGVFKSNLGGTDGAQGLFWKLLAKLGGWAIPKPESAAQRVLYLANAPELESVSGQYYANRKTIPAPAQALDAEANRRLWEISERMTGLTQSQTVGDQAATEGHHHHHH” the “soluble on expression in E. coli” value was “soluble”.
With “MDAEQLLKAITPEVYDRLVYAVETGRWPEGTTLSREQRDSCMQAVMLYQSKHNTEAQHMTVAAGGEISFKSKQELKKQFNTDESDIVRVNPNLD” the “soluble on expression in E. coli” value was “not soluble”.
With “MSLAMALFQSAPHSLCILRLSAIGDVCNTIAAVQAIQRQWPQTRITWVTGKLEAELIQSLPDIQVIVFDKKLGWRAYTQLWQQLKSERFDALLHMQYAFRASIATLGIKARYKLGFDAARSQDFQTWFTNVKVPSPDKMHVLDGLLAFVEHLGIRDIEPKWSLTCQPDDLTWAEAQFQPEQPRLVVVPGASKAYKNWTAEGYAAVIEHAQQQGWQVILAGSPAQVERDLAAQVEQALAHPVLNLVGKSTLQQMLALLAKADLVIAPDTGPAHMANAMHTPIIGLYAHHNPERTGPYHYRHYVVSAYQEALLAETGKMPQQVDWRTRVKDPNAMQRITAQQVIAMFERAAADIMATQVNDEGHHHHHH” the “soluble on expression in E. coli” value was “soluble”.
